Assay results from paper PMC11266248.
Several values for one entry are separate records, joined by “and”; a condition that tells them apart may be missing. Equal entries are not always repeated.

Columns and labels:
[1] = target: recombinant factor H-like protein 1 (human) (UniProt P08603); test: SPR; Biacore T100, CM5 chip; FH (750 RU), rFHL-1 or rFH15-20 (200 RU) amine-coupled as ligands; CspZ or FhbA as analytes; PBS with 0.05% Tween20, 25 °C, 30 µl/min; single-cycle and multiple-cycle kinetics, Langmuir 1:1 model; in duplicate
recombinant factor H-like protein 1 (human), sequence (P08603 other isoform, or with tags, fused parts or gaps): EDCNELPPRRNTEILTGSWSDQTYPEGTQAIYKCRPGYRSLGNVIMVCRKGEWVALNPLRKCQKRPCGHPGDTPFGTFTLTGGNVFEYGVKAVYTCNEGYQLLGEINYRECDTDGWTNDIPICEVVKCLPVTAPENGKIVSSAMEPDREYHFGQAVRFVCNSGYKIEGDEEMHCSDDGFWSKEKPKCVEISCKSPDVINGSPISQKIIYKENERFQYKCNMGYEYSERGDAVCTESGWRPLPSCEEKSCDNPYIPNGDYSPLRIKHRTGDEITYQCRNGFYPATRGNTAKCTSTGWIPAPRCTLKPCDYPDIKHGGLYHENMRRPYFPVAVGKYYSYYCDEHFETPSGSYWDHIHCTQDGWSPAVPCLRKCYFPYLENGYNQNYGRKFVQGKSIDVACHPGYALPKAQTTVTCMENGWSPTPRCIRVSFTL

[2] = target: factor H binding A (FhbA) from Borrelia hermsii (Borrelia hermsii); test: SEC-MALS; Superdex 200 increase 10/300 GL in PBS, 0.7 mL/min; 100 µL injected at about 3.75 mg/mL (CspZ) or 2.50 mg/mL (FhbA)
[3] = target: purified human complement factor H from human plasma/serum (human) (UniProt P08603); test: SPR; Biacore T100, CM5 chip; FH (750 RU), rFHL-1 or rFH15-20 (200 RU) amine-coupled as ligands; CspZ or FhbA as analytes; PBS with 0.05% Tween20, 25 °C, 30 µl/min; single-cycle and multiple-cycle kinetics, Langmuir 1:1 model; in duplicate
purified human complement factor H from human plasma/serum (human), sequence (P08603 19-1231): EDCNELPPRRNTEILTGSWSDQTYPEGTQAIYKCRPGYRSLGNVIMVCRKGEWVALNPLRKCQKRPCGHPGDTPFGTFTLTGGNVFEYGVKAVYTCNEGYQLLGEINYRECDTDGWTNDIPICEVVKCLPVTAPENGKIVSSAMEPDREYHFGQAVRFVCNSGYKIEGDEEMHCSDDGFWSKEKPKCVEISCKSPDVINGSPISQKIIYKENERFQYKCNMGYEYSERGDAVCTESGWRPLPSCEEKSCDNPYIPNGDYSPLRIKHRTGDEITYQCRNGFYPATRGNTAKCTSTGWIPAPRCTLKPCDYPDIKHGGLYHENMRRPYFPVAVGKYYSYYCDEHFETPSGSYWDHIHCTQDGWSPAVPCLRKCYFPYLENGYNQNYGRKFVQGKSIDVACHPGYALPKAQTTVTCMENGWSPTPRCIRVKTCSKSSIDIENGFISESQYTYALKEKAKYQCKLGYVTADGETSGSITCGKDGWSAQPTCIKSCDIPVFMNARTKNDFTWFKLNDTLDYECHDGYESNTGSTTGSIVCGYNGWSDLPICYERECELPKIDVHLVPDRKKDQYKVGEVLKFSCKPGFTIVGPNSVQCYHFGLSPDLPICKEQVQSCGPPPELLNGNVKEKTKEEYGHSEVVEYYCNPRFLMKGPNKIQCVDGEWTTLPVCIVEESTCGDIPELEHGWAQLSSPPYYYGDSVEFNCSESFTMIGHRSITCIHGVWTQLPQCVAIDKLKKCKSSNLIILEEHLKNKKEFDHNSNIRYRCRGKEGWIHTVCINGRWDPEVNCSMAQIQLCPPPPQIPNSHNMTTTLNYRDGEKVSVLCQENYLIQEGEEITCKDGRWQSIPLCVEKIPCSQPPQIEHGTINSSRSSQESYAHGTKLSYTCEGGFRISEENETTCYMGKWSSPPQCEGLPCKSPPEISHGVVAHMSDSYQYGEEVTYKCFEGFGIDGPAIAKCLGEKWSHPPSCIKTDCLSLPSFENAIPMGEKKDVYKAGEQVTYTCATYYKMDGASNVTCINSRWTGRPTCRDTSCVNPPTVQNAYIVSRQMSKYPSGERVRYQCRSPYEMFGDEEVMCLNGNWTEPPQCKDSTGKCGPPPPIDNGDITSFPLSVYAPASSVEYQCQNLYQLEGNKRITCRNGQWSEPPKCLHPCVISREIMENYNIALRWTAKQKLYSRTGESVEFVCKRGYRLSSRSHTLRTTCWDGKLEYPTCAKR

[4] = target: recombinant factor H SCR15-20 (human) (UniProt P08603); test: as above
recombinant factor H SCR15-20 (human), sequence (P08603 860-1231): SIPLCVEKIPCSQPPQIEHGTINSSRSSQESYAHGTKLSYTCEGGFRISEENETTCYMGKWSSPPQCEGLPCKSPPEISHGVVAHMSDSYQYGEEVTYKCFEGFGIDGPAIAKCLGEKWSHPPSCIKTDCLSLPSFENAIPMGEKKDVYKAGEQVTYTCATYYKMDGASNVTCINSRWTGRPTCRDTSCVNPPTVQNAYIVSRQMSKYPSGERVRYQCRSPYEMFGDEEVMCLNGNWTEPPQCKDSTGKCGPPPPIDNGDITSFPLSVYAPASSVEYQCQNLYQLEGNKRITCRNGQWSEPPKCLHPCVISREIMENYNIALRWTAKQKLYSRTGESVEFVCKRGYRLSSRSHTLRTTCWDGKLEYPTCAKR

[5] = target: factor H binding A (FhbA) from Borrelia hermsii (Borrelia hermsii); test: LC-HRMS (ESI-Q-TOF); ACE C4 column, 0.1% formic acid/acetonitrile gradient, ESI+, deconvolution with UniDec

Substance	Kd [1] [nM]	koff [1] [s⁻¹]	kon [1] [M⁻¹ s⁻¹]	representation of the dimer peak (46.2 kDa) in the sample (%) [2] [%]	representation of the pentamer peak (119.0 kDa) in the sample (%) [2] [%]	representation of the trimer peak (71.7 kDa) in the sample (%) [2] [%]	stoichiometry N [2]	Kd [3] [nM]	koff [3] [s⁻¹]	kon [3] [M⁻¹ s⁻¹]	Kd [4] [nM]	koff [4] [s⁻¹]	kon [4] [M⁻¹ s⁻¹]	stoichiometry N [5]
CspZ from Borrelia burgdorferi sensu stricto (complement regulator-acquiring surface protein 2) (from UniProt O50665 1-236) (natural protein)	0.044	3.1e-05	720000											
factor H binding A (FhbA) from Borrelia hermsii (natural protein)	42.9	6.74e-05	1570	27	1	6	2 and 3 and 5	1.09	0.000268	246000	3.37	0.000266	85400	2
